Each block holds one binder with its values, some of them ahead of it.
What was measured:
P5A-bA = biological target: T1, P5A-bA; assay: two-hybrid library CCNG1;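 note: natural log of median RNA to DNA barcode read ratio; higher means stronger binding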
T1 chain: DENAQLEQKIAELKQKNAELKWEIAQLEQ

P4A-bA = biological target: T2, P4A-bA; assay: two-hybrid library CCNG1;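 note: natural log of median RNA to DNA barcode read ratio; higher means stronger binding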
T2 chain: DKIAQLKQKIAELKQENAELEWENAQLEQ

P9A-bA = biological target: T3, P9A-bA; assay: two-hybrid library CCNG1;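 note: natural log of median RNA to DNA barcode read ratio; higher means stronger binding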
T3 chain: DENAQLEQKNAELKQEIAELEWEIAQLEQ

P8A-bA = biological target: T4, P8A-bA; assay: two-hybrid library CCNG1;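 note: natural log of median RNA to DNA barcode read ratio; higher means stronger binding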
T4 chain: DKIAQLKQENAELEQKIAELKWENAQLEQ

P1A-bA = biological target: T5, P1A-bA; assay: two-hybrid library CCNG1;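 note: natural log of median RNA to DNA barcode read ratio; higher means stronger binding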
T5 chain: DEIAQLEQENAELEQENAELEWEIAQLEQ

P7A-bA = biological target: T6, P7A-bA; assay: two-hybrid library CCNG1;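 note: natural log of median RNA to DNA barcode read ratio; higher means stronger binding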
T6 chain: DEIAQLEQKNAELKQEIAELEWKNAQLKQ

P2A-bA = biological target: T7, P2A-bA; assay: two-hybrid library CCNG1
T7 chain: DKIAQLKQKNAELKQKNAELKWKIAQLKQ

P12A-bA = biological target: T8, P12A-bA; assay: two-hybrid library CCNG1
T8 chain: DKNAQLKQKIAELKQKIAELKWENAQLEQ

P6A-bA = biological target: T9, P6A-bA; assay: two-hybrid library CCNG1
T9 chain: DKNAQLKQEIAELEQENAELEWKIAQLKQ

P3A-bA = biological target: T10, P3A-bA; assay: two-hybrid library CCNG1
T10 chain: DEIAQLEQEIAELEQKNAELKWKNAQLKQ

4H3414-AA = biological target: T11, 4H3414-AA; assay: two-hybrid library CCmax; details: mean of both orientations
T11 chain: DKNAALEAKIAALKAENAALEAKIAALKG

4H2580-AA = biological target: T12, 4H2580-AA; assay: two-hybrid library CCmax; details: mean of both orientations
T12 chain: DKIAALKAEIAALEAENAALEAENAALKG

4H3629-AA = biological target: T13, 4H3629-AA; assay: two-hybrid library CCmax; details: mean of both orientations
T13 chain: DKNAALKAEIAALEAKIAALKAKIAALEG

4H249-AA = biological target: T14, 4H249-AA; assay: two-hybrid library CCmax; details: mean of both orientations
T14 chain: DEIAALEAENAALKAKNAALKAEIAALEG

4H341-AA = biological target: T15, 4H341-AA; assay: two-hybrid library CCmax; details: mean of both orientations
T15 chain: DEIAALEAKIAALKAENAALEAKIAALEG

4H2621-AA = biological target: T16, 4H2621-AA; assay: two-hybrid library CCmax; details: mean of both orientations
T16 chain: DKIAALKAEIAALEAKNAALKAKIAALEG

4H464-AA = biological target: T17, 4H464-AA; assay: two-hybrid library CCmax; details: mean of both orientations
T17 chain: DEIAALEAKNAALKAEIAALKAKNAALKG

4H2961-AA = biological target: T18, 4H2961-AA; assay: two-hybrid library CCmax
T18 chain: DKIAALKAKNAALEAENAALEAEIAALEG

4H2699-AA = biological target: T19, 4H2699-AA; assay: two-hybrid library CCmax; details: mean of both orientations
T19 chain: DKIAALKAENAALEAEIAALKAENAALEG

4H3939-AA = biological target: T20, 4H3939-AA; assay: two-hybrid library CCmax; details: mean of both orientations
T20 chain: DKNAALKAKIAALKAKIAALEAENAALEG

4H1360-AA = biological target: T21, 4H1360-AA; assay: two-hybrid library CCmax; details: mean of both orientations
T21 chain: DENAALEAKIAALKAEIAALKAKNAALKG

4H1913-AA = biological target: T22, 4H1913-AA; assay: two-hybrid library CCmax; details: mean of both orientations
T22 chain: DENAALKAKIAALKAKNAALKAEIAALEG

4H2774-AA = biological target: T23, 4H2774-AA; assay: two-hybrid library CCmax; details: mean of both orientations
T23 chain: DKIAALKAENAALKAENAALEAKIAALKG

4H2728-AA = biological target: T24, 4H2728-AA; assay: two-hybrid library CCmax; details: mean of both orientations
T24 chain: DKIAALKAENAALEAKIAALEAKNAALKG

4H63-AA = biological target: T25, 4H63-AA; assay: two-hybrid library CCmax; details: mean of both orientations
T25 chain: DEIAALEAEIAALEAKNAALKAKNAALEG

4H446-AA = biological target: T26, 4H446-AA; assay: two-hybrid library CCmax; details: mean of both orientations
T26 chain: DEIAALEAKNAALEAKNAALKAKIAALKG

4H3049-AA = biological target: T27, 4H3049-AA; assay: two-hybrid library CCmax; details: mean of both orientations
T27 chain: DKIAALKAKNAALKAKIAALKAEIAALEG

4H3595-AA = biological target: T28, 4H3595-AA; assay: two-hybrid library CCmax; details: mean of both orientations
T28 chain: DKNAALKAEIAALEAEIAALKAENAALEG

4H380-AA = biological target: T29, 4H380-AA; assay: two-hybrid library CCmax; details: mean of both orientations
T29 chain: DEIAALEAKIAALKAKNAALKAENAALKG

4H2903-AA = biological target: T30, 4H2903-AA; assay: two-hybrid library CCmax; details: mean of both orientations
T30 chain: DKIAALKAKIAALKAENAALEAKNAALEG

4H3129-AA = biological target: T31, 4H3129-AA; assay: two-hybrid library CCmax; details: mean of both orientations
T31 chain: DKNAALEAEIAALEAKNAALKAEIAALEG

4H1558-AA = biological target: T32, 4H1558-AA; assay: two-hybrid library CCmax; details: mean of both orientations
T32 chain: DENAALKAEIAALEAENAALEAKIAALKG

4H3969-AA = biological target: T33, 4H3969-AA; assay: two-hybrid library CCmax; details: mean of both orientations
T33 chain: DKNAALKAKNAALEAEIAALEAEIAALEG

4H483-AA = biological target: T34, 4H483-AA; assay: two-hybrid library CCmax; details: mean of both orientations
T34 chain: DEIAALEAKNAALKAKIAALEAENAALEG

4H1454-AA = biological target: T35, 4H1454-AA; assay: two-hybrid library CCmax; details: mean of both orientations
T35 chain: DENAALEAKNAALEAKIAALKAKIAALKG

4H3782-AA = biological target: T36, 4H3782-AA; assay: two-hybrid library CCmax; details: mean of both orientations
T36 chain: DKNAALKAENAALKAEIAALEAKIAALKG

4H130-AA = biological target: T37, 4H130-AA; assay: two-hybrid library CCmax
T37 chain: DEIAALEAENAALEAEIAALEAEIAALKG

4H1349-AA = biological target: T38, 4H1349-AA; assay: two-hybrid library CCmax; details: mean of both orientations
T38 chain: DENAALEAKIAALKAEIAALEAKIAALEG

interaction score (P5A-bA): -1.16 | interaction score (P4A-bA): -1.03 | interaction score (P9A-bA): 0.0326 | interaction score (P8A-bA): -1.32 | interaction score (P1A-bA): -0.14 | interaction score (P7A-bA): -1.88 | interaction score (P2A-bA): -1.29 | interaction score (P12A-bA): -0.937 | interaction score (P6A-bA): -0.314 | interaction score (P3A-bA): 0.536
Binder: DKNAQLKQKIAELKQKIAELKWENAQLEQ [P12A-bA]

interaction score (4H3414-AA): 1 | interaction score (4H2580-AA): -1.46 | interaction score (4H3629-AA): 0.896 | interaction score (4H249-AA): 1.18 | interaction score (4H341-AA): 0.154 | interaction score (4H2621-AA): 0.962 | interaction score (4H464-AA): 1.95 | interaction score (4H2961-AA): -0.589 | interaction score (4H2699-AA): -0.46 | interaction score (4H3939-AA): 1.29 | interaction score (4H1360-AA): 1.22 | interaction score (4H1913-AA): 1.08 | interaction score (4H2774-AA): 0.9 | interaction score (4H2728-AA): 0.54 | interaction score (4H63-AA): -1.29 | interaction score (4H446-AA): 1.05 | interaction score (4H3049-AA): 1.67 | interaction score (4H3595-AA): 0.698 | interaction score (4H380-AA): -0.0955 | interaction score (4H2903-AA): -1.15 | interaction score (4H3129-AA): -0.746 | interaction score (4H1558-AA): -0.952 | interaction score (4H3969-AA): -0.404 | interaction score (4H483-AA): 0.0918 | interaction score (4H1454-AA): 1.52 | interaction score (4H3782-AA): 1.3 | interaction score (4H130-AA): 1.11 | interaction score (4H1349-AA): -0.443
Binder: DEIAALEAENAALEAEIAALEAEIAALKG [4H130-AA]

From article PMC10397247
